± gives the uncertainty stated by the source.
Assay: protein stability index of a GFP-peptide fusion (yeast GPS) (PSI 1-4); higher = more stable; sorted into four equal gates, so the index is relative within each strain
Outline: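 Plasmids isolated from each sorting gate were PCR-amplified and Illumina-sequenced, and barcodes assigned the reads to strains. The gates, four of equal size, were set by GFP/Cherry fluorescence ratio on mid-log cultures in leucine-free medium. These cultures were yeast carrying a pooled library of tiled 17-residue yeast protein peptides fused downstream of GFP on a plasmid that also expresses Cherry. The protein stability index is the sum of every gate's read frequency times its gate number.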

NTTDPLGHTKAALGEVA [SIR2]
protein stability index (doa10∆): 2.51 ± 0.065
protein stability index (pdr5∆): 2.69 ± 0.078
protein stability index (san1∆): 2.67 ± 0.088
protein stability index (ubr1∆): 3.08 ± 0.069

AKNKSTRINGLNSNNSI [REC8]
protein stability index (doa10∆): 3.43 ± 0.14
protein stability index (pdr5∆): 3.15 ± 0.098
protein stability index (san1∆): 3.25 ± 0.061
protein stability index (ubr1∆): 3.27 ± 0.073

AERDSQGGFYKQQDAEE [UBP6]
protein stability index (doa10∆): 3.35 ± 0.08
protein stability index (pdr5∆): 3.38 ± 0.089
protein stability index (san1∆): 3.07 ± 0.077
protein stability index (ubr1∆): 3.28 ± 0.055

DSRLSRKQIDETQVLVS [BRR2]
protein stability index (doa10∆): 1.61 ± 0.055
protein stability index (pdr5∆): 1.83 ± 0.073
protein stability index (san1∆): 1.82 ± 0.072
protein stability index (ubr1∆): 2.13 ± 0.041

VGQAGRPKKITGWITQS [RPN1]
protein stability index (doa10∆): 1.99 ± 0.059
protein stability index (pdr5∆): 2.27 ± 0.075
protein stability index (san1∆): 2.21 ± 0.12
protein stability index (ubr1∆): 2 ± 0.044

VGRRAANLRVLNSYWVN [RPL15A]
protein stability index (doa10∆): 1.97 ± 0.062
protein stability index (pdr5∆): 1.71 ± 0.072
protein stability index (san1∆): 1.91 ± 0.11
protein stability index (ubr1∆): 1.69 ± 0.07

DRVVSSDSLDIAQGIDL [SRP72]
protein stability index (doa10∆): 2.85 ± 0.069
protein stability index (pdr5∆): 2.6 ± 0.062
protein stability index (san1∆): 2.27 ± 0.079
protein stability index (ubr1∆): 3 ± 0.079

DSLASELTLAEQQVKEA [SMC4]
protein stability index (doa10∆): 3.24 ± 0.21
protein stability index (pdr5∆): 3.53 ± 0.11
protein stability index (san1∆): 3.23 ± 0.15
protein stability index (ubr1∆): 3.39 ± 0.23

EEPAKEEAPAPTPAASA [FAS2]
protein stability index (doa10∆): 2.75 ± 0.14
protein stability index (pdr5∆): 2.82 ± 0.12
protein stability index (san1∆): 2.69 ± 0.26
protein stability index (ubr1∆): 2.98 ± 0.14

ILDLKEFDRRILKKSLM [RTT102]
protein stability index (pdr5∆): 3.47 ± 0.23
protein stability index (san1∆): 3.19 ± 0.099
protein stability index (ubr1∆): 3.22 ± 0.28

LRRVNARYVIATSTKVS [RPL6A]
protein stability index (doa10∆): 1.45 ± 0.058
protein stability index (pdr5∆): 1.34 ± 0.047
protein stability index (san1∆): 1.25 ± 0.095
protein stability index (ubr1∆): 1.14 ± 0.035

ISQVSSIHAIGSIKEDY [RPB7]
protein stability index (doa10∆): 2.27 ± 0.077
protein stability index (pdr5∆): 2.65 ± 0.067
protein stability index (san1∆): 2.32 ± 0.084
protein stability index (ubr1∆): 2.79 ± 0.1

MEETEQKKIQINKEMGE [SMC3]
protein stability index (ubr1∆): 2.49 ± 0.26

VKTPKKTKYILQRPTAT [CSN12]
protein stability index (doa10∆): 2.89 ± 0.069
protein stability index (pdr5∆): 3.03 ± 0.076
protein stability index (san1∆): 2.6 ± 0.079
protein stability index (ubr1∆): 2.43 ± 0.21

VLARISPELSLQRHLSL [RRP43]
protein stability index (doa10∆): 2.47 ± 0.054
protein stability index (pdr5∆): 2.04 ± 0.072
protein stability index (san1∆): 2.02 ± 0.093
protein stability index (ubr1∆): 2.47 ± 0.05

IEEEIFDDSSRIVNHKT [LIN1]
protein stability index (doa10∆): 3.14 ± 0.083
protein stability index (pdr5∆): 2.91 ± 0.1
protein stability index (san1∆): 3.11 ± 0.072
protein stability index (ubr1∆): 2.97 ± 0.071

PTTMVTNQKDTNDHVDK [ISW2]
protein stability index (doa10∆): 1.96 ± 0.062
protein stability index (pdr5∆): 2.03 ± 0.064
protein stability index (san1∆): 1.67 ± 0.1
protein stability index (ubr1∆): 1.75 ± 0.055

NGGNNTQQPGTNSHYNN [SNF2]
protein stability index (doa10∆): 3.05 ± 0.058
protein stability index (pdr5∆): 3.16 ± 0.063
protein stability index (san1∆): 3.04 ± 0.054
protein stability index (ubr1∆): 3.05 ± 0.047

QEQLKNVKNDVSFNDSQ [YIL149C/MLP2]
protein stability index (doa10∆): 3.27 ± 0.061
protein stability index (pdr5∆): 3.5 ± 0.066
protein stability index (san1∆): 3.08 ± 0.083
protein stability index (ubr1∆): 3.31 ± 0.053

LDDDSIVNHEQDLPKIN [SRB4]
protein stability index (doa10∆): 2.7 ± 0.14
protein stability index (pdr5∆): 2.92 ± 0.082
protein stability index (san1∆): 2.99 ± 0.09
protein stability index (ubr1∆): 2.81 ± 0.063

STTEHINIDDLLYELTA [YJL039C/NUP192]
protein stability index (doa10∆): 2.82 ± 0.11
protein stability index (pdr5∆): 2.61 ± 0.092
protein stability index (san1∆): 2.43 ± 0.099
protein stability index (ubr1∆): 3.05 ± 0.053

RVIIQELRFPSPTPIQR [PRP28]
protein stability index (doa10∆): 2.57 ± 0.15
protein stability index (pdr5∆): 2.58 ± 0.15
protein stability index (san1∆): 2.41 ± 0.14

ESSINTHPHAADGSSYM [SKI6]
protein stability index (doa10∆): 2.98 ± 0.047
protein stability index (pdr5∆): 3.22 ± 0.039
protein stability index (san1∆): 3 ± 0.035
protein stability index (ubr1∆): 3.05 ± 0.036

RRRTYRAHGRINKYESS [RPL17A]
protein stability index (doa10∆): 1.87 ± 0.2
protein stability index (pdr5∆): 2.37 ± 0.094
protein stability index (san1∆): 1.9 ± 0.13
protein stability index (ubr1∆): 2.05 ± 0.065

VSKFYDKINQLSVVKYL [RPN9]
protein stability index (doa10∆): 2.25 ± 0.12
protein stability index (pdr5∆): 1.75 ± 0.083
protein stability index (san1∆): 1.31 ± 0.11
protein stability index (ubr1∆): 1.7 ± 0.083

HASENISLSFSRPASYG [SIR4]
protein stability index (doa10∆): 2.53 ± 0.064
protein stability index (pdr5∆): 2.53 ± 0.044
protein stability index (san1∆): 2.74 ± 0.049
protein stability index (ubr1∆): 3.19 ± 0.045

EREVFVDVKPKSPKERE [RPC25]
protein stability index (pdr5∆): 2.98 ± 0.17
protein stability index (ubr1∆): 3.34 ± 0.13

MLVDLNVPWPQNSYADK [RPP1]
protein stability index (doa10∆): 1.59 ± 0.27
protein stability index (pdr5∆): 1.08 ± 0.14
protein stability index (ubr1∆): 1.12 ± 0.15

EAHPTKVKNFGVWVRYD [RPL20A]
protein stability index (doa10∆): 3.02 ± 0.087
protein stability index (pdr5∆): 2.96 ± 0.056
protein stability index (san1∆): 3.01 ± 0.044
protein stability index (ubr1∆): 2.9 ± 0.047

KPLGLDRYGNRYFWLDH [ITC1]
protein stability index (doa10∆): 2.77 ± 0.11
protein stability index (pdr5∆): 3.02 ± 0.13
protein stability index (san1∆): 2.85 ± 0.056
protein stability index (ubr1∆): 2.74 ± 0.086

MSSQIIDRPKHELSRAE [SMD2]
protein stability index (doa10∆): 3.14 ± 0.093
protein stability index (pdr5∆): 3.46 ± 0.12
protein stability index (san1∆): 3.2 ± 0.11
protein stability index (ubr1∆): 3.25 ± 0.11

VRSLLEVVQTGAKNIEI [PRE6]
protein stability index (doa10∆): 3.38 ± 0.14
protein stability index (pdr5∆): 3.29 ± 0.098
protein stability index (san1∆): 3.06 ± 0.074
protein stability index (ubr1∆): 3.21 ± 0.069

LKAVTVEAGMIALRNGQ [RPT5]
protein stability index (doa10∆): 3.1 ± 0.23
protein stability index (pdr5∆): 2.9 ± 0.16
protein stability index (san1∆): 2.51 ± 0.17

EEKEEENGDEDEDEDED [QCR6]
protein stability index (doa10∆): 3.68 ± 0.17
protein stability index (pdr5∆): 3.34 ± 0.27
protein stability index (san1∆): 3.27 ± 0.084
protein stability index (ubr1∆): 3.64 ± 0.08

EGARMVRELFEMARTKK [RPT1]
protein stability index (doa10∆): 1.78 ± 0.12
protein stability index (pdr5∆): 1.7 ± 0.15

CKQFPKLSCIQLNCIDT [SRB8]
protein stability index (doa10∆): 1.54 ± 0.041
protein stability index (pdr5∆): 1.95 ± 0.039
protein stability index (san1∆): 1.52 ± 0.043
protein stability index (ubr1∆): 1.66 ± 0.026

LKDLNLTVSIKIALMNI [RGR1]
protein stability index (doa10∆): 1.34 ± 0.062
protein stability index (pdr5∆): 1.66 ± 0.066
protein stability index (san1∆): 1.73 ± 0.077
protein stability index (ubr1∆): 1.21 ± 0.06

YHTNPGHSQFTSHYQNY [RPN4]
protein stability index (doa10∆): 2.82 ± 0.067
protein stability index (pdr5∆): 2.9 ± 0.089
protein stability index (san1∆): 3.02 ± 0.079
protein stability index (ubr1∆): 3.04 ± 0.054

WDLQLQEKESQIQLAES [SMC4]
protein stability index (doa10∆): 3.05 ± 0.056
protein stability index (pdr5∆): 3.08 ± 0.076
protein stability index (san1∆): 2.82 ± 0.082
protein stability index (ubr1∆): 3.07 ± 0.06

IQSQVFESLYNSNDSVF [BRR2]
protein stability index (doa10∆): 2.04 ± 0.053
protein stability index (pdr5∆): 2.31 ± 0.057
protein stability index (san1∆): 1.59 ± 0.097
protein stability index (ubr1∆): 2.09 ± 0.046

DLLKLVHLSNGYKMIPG [FAS1]
protein stability index (doa10∆): 2.3 ± 0.057
protein stability index (pdr5∆): 2.46 ± 0.055
protein stability index (san1∆): 2.14 ± 0.064
protein stability index (ubr1∆): 2.24 ± 0.039

KKYTQNNPLLLIVDVKQ [RPN8]
protein stability index (doa10∆): 1.4 ± 0.068
protein stability index (pdr5∆): 1.31 ± 0.046
protein stability index (san1∆): 1.06 ± 0.14
protein stability index (ubr1∆): 1.16 ± 0.048

KVLTALSRLQKSGRING [SMC4]
protein stability index (pdr5∆): 3.43 ± 0.2
protein stability index (san1∆): 3.29 ± 0.083
protein stability index (ubr1∆): 3.43 ± 0.19

YIKSMDLISKKTKTSLL [RPR2]
protein stability index (doa10∆): 2.96 ± 0.081
protein stability index (pdr5∆): 2.66 ± 0.079
protein stability index (san1∆): 2.78 ± 0.075
protein stability index (ubr1∆): 2.79 ± 0.051

GLESLLNIGLGAVGLKD [YCS4]
protein stability index (doa10∆): 2.77 ± 0.1
protein stability index (pdr5∆): 2.61 ± 0.15
protein stability index (san1∆): 2.89 ± 0.13
protein stability index (ubr1∆): 2.68 ± 0.065

KATLELLKLIEPYVAYG [RPL7A]
protein stability index (doa10∆): 2.28 ± 0.078
protein stability index (pdr5∆): 3.24 ± 0.083
protein stability index (san1∆): 3.3 ± 0.034
protein stability index (ubr1∆): 2.79 ± 0.047

SSTQDVILRKISMLVTQ [CSI1]
protein stability index (doa10∆): 1.62 ± 0.054
protein stability index (pdr5∆): 1.75 ± 0.054
protein stability index (san1∆): 1.91 ± 0.085
protein stability index (ubr1∆): 1.77 ± 0.041

GPSAMRLSRCIRDNKLV [RPC82]
protein stability index (doa10∆): 1.94 ± 0.14
protein stability index (pdr5∆): 2.23 ± 0.13
protein stability index (san1∆): 1.58 ± 0.15
protein stability index (ubr1∆): 2.15 ± 0.099

IDTSKNLENMSIQDTST [YCG1]
protein stability index (doa10∆): 2.79 ± 0.046
protein stability index (pdr5∆): 2.94 ± 0.041
protein stability index (san1∆): 2.71 ± 0.044
protein stability index (ubr1∆): 2.68 ± 0.041

NLEQINEDLEDGHYIEE [REC8]
protein stability index (doa10∆): 2.93 ± 0.088
protein stability index (san1∆): 2.98 ± 0.16
protein stability index (ubr1∆): 3.2 ± 0.088

MATPSFGNSSPQLTFTH [YML103C/NUP188]
protein stability index (doa10∆): 2.75 ± 0.12
protein stability index (pdr5∆): 2.1 ± 0.068
protein stability index (san1∆): 2.83 ± 0.067
protein stability index (ubr1∆): 2.73 ± 0.062

KNEETPQNEKPPAYALL [RPC25]
protein stability index (doa10∆): 2.27 ± 0.23
protein stability index (san1∆): 2.05 ± 0.14
protein stability index (ubr1∆): 2.74 ± 0.24

NVTSFMPFWKFFMKNFP [SRB8]
protein stability index (doa10∆): 1.47 ± 0.053
protein stability index (pdr5∆): 1.63 ± 0.046
protein stability index (san1∆): 1.43 ± 0.068
protein stability index (ubr1∆): 1.35 ± 0.041

ASILLALTQMDQDKVNF [RPB3]
protein stability index (doa10∆): 3.18 ± 0.11
protein stability index (pdr5∆): 3.28 ± 0.094
protein stability index (san1∆): 3.24 ± 0.073
protein stability index (ubr1∆): 2.93 ± 0.056

Source: the supplement of paper PMC9732359
